Reference: patent US20260242735A1 (UNIVERSIT T BASEL, published 2026)

B1: Refmab #6 (antibody, human IgG1, V domains shown)
VH: QVQLQQPGAEVVKPGASVKMSCKASGYTFTSYYIHWIKQTPGQGLEWVGVIYPGNDDISYNQKFQGKATLTADKSSTTAYMQLSSLTSEDSAVYYCAREVRLRYFDVWGQGTTVTVSS
VL: EIVLTQSPGSLAVSPGERVTMSCKSSQSVFFSSSQKNYLAWYQQIPGQSPRLLIYWASTRESGVPDRFTGSGSGTDFTLTISSVQPEDLAIYYCHQYLSSRTFGQGTKLEIK
B2: Refmab #5 (antibody, human IgG1, V domains shown)
VH: QVQLVQSGAEVKKPGASVKVSCKASGYTFTNYDINWVRQAPGQGLEWIGWIYPGDGSTKYNEKFKAKATLTADTSTSTAYMELRSLRSDDTAVYYCASGYEDAMDYWGQGTTVTVSS
VL: DIQMTQSPSSLSASVGDRVTINCKASQDINSYLSWFQQKPGKAPKTLIYRANRLVDGVPSRFSGSGSGQDYTLTISSLQPEDFATYYCLQYDEFPLTFGGGTKVEIK

Legend:
Test in all cases: flow cytometry on transfected cells, IgG
human CD33 F43L = human CD33 F43L (human, UniProt P20138 18-364)
Protocol: (§1) An alanine scan on human CD33 was performed to the determine the residues on CD33 that are involved in binding to the antibodies investigated. […] Briefly, a mutation library of CD33 was created by high-throughput, site-directed mutagenesis. Each residue was individually mutated to alanine, with alanine codons mutated to serine. The mutant library was arrayed in 384-well microplates and transiently transfected into HEK293-T. Following transfection, cells were incubated with the indicated antibodies (IgG or Fab) at concentrations pre-determined using an independent immunofluorescence titration curve on wild type CD33. […] Binding of each antibody to each mutant clone was determined in duplicates. For each point, background fluorescence was subtracted from the raw data, which were then normalized to antibody reactivity with wild type CD33.
(§2) Antibodies were screened for binding to the human CD33 variants in IgG format. […] For each mutation, background fluorescence was subtracted from the raw data, which were then normalized to antibody reactivity with wild-type CD33.

human CD33 F44P = human CD33 F44P (human, UniProt P20138 18-364)
Protocol: as §1, §2

human CD33 F44D = human CD33 F44D (human, UniProt P20138 18-364)
Protocol: as §1, §2

human CD33 F44E = human CD33 F44E (human, UniProt P20138 18-364)
Protocol: as §1, §2

human CD33 F44T = human CD33 F44T (human, UniProt P20138 18-364)
Protocol: as §1, §2

human CD33 H45Y = human CD33 H45Y (human, UniProt P20138 18-364)
Protocol: as §1, §2

human CD33 P46S = human CD33 P46S (human, UniProt P20138 18-364)
Protocol: as §1, §2

human CD33 P46R = human CD33 P46R (human, UniProt P20138 18-364)
Protocol: as §1, §2

human CD33 P46Y = human CD33 P46Y (human, UniProt P20138 18-364)
Protocol: as §1, §2

human CD33 I47T = human CD33 I47T (human, UniProt P20138 18-364)
Protocol: as §1, §2

human CD33 I47L = human CD33 I47L (human, UniProt P20138 18-364)
Protocol: as §1, §2

human CD33 I47F = human CD33 I47F (human, UniProt P20138 18-364)
Protocol: as §1, §2

human CD33 I47Y = human CD33 I47Y (human, UniProt P20138 18-364)
Protocol: as §1, §2

human CD33 I47W = human CD33 I47W (human, UniProt P20138 18-364)
Protocol: as §1, §2

human CD33 I47Q = human CD33 I47Q (human, UniProt P20138 18-364)
Protocol: as §1, §2

human CD33 P48T = human CD33 P48T (human, UniProt P20138 18-364)
Protocol: as §1, §2

human CD33 P48H = human CD33 P48H (human, UniProt P20138 18-364)
Protocol: as §1, §2

human CD33 P48V = human CD33 P48V (human, UniProt P20138 18-364)
Protocol: as §1, §2

human CD33 P48I = human CD33 P48I (human, UniProt P20138 18-364)
Protocol: as §1, §2

human CD33 P48L = human CD33 P48L (human, UniProt P20138 18-364)
Protocol: as §1, §2

human CD33 P48Q = human CD33 P48Q (human, UniProt P20138 18-364)
Protocol: as §1, §2

human CD33 P48K = human CD33 P48K (human, UniProt P20138 18-364)
Protocol: as §1, §2

human CD33 P48G = human CD33 P48G (human, UniProt P20138 18-364)
Protocol: as §1, §2

human CD33 P48S = human CD33 P48S (human, UniProt P20138 18-364)
Protocol: as §1, §2

human CD33 Y49P = human CD33 Y49P (human, UniProt P20138 18-364)
Protocol: as §1, §2

human CD33 Y49Q = human CD33 Y49Q (human, UniProt P20138 18-364)
Protocol: as §1, §2

human CD33 Y49H = human CD33 Y49H (human, UniProt P20138 18-364)
Protocol: as §1, §2

human CD33 Y49D = human CD33 Y49D (human, UniProt P20138 18-364)
Protocol: as §1, §2

human CD33 Y49V = human CD33 Y49V (human, UniProt P20138 18-364)
Protocol: as §1, §2

human CD33 Y49G = human CD33 Y49G (human, UniProt P20138 18-364)
Protocol: as §1, §2

human CD33 Y49C = human CD33 Y49C (human, UniProt P20138 18-364)
Protocol: as §1, §2

human CD33 Y49S = human CD33 Y49S (human, UniProt P20138 18-364)
Protocol: as §1, §2

human CD33 Y49I = human CD33 Y49I (human, UniProt P20138 18-364)
Protocol: as §1, §2

human CD33 Y50N = human CD33 Y50N (human, UniProt P20138 18-364)
Protocol: as §1, §2

human CD33 Y50R = human CD33 Y50R (human, UniProt P20138 18-364)
Protocol: as §1, §2

human CD33 Y50G = human CD33 Y50G (human, UniProt P20138 18-364)
Protocol: as §1, §2

human CD33 T42P = human CD33 T42P (human, UniProt P20138 18-364)
Protocol: as §1, §2

human CD33 F43V = human CD33 F43V (human, UniProt P20138 18-364)
Protocol: as §1, §2

human CD33 Y49Q, sequence (P20138 18-364 Y49Q limits assumed): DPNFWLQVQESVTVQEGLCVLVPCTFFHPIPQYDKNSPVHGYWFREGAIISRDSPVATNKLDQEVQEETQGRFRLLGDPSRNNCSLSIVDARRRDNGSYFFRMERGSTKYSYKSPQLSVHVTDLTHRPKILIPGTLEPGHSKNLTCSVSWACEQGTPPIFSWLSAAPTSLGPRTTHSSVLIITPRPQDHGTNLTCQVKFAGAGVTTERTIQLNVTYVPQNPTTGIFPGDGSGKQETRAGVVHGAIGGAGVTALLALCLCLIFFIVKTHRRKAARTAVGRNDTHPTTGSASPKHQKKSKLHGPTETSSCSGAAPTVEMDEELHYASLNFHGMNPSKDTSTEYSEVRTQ
human CD33 Y49C, sequence (P20138 18-364 Y49C limits assumed): as the sequence (P20138 18-364 Y49Q limits assumed) above, with Q32C counted along it
human CD33 P48S, sequence (P20138 18-364 P48S limits assumed): as the sequence (P20138 18-364 Y49Q limits assumed) above, with P31S, Q32Y counted along it
human CD33 F44E, sequence (P20138 18-364 F44E limits assumed): as the sequence (P20138 18-364 Y49Q limits assumed) above, with F27E, Q32Y counted along it
human CD33 P46Y, sequence (P20138 18-364 P46Y limits assumed): as the sequence (P20138 18-364 Y49Q limits assumed) above, with P29Y, Q32Y counted along it
human CD33 P48I, sequence (P20138 18-364 P48I limits assumed): as the sequence (P20138 18-364 Y49Q limits assumed) above, with P31I, Q32Y counted along it
human CD33 Y49G, sequence (P20138 18-364 Y49G limits assumed): as the sequence (P20138 18-364 Y49Q limits assumed) above, with Q32G counted along it
human CD33 I47T, sequence (P20138 18-364 I47T limits assumed): as the sequence (P20138 18-364 Y49Q limits assumed) above, with I30T, Q32Y counted along it
human CD33 F43L, sequence (P20138 18-364 F43L limits assumed): as the sequence (P20138 18-364 Y49Q limits assumed) above, with F26L, Q32Y counted along it
human CD33 P48L, sequence (P20138 18-364 P48L limits assumed): as the sequence (P20138 18-364 Y49Q limits assumed) above, with P31L, Q32Y counted along it
human CD33 T42P, sequence (P20138 18-364 T42P limits assumed): as the sequence (P20138 18-364 Y49Q limits assumed) above, with T25P, Q32Y counted along it
human CD33 F44P, sequence (P20138 18-364 F44P limits assumed): as the sequence (P20138 18-364 Y49Q limits assumed) above, with F27P, Q32Y counted along it
human CD33 I47Q, sequence (P20138 18-364 I47Q limits assumed): as the sequence (P20138 18-364 Y49Q limits assumed) above, with I30Q, Q32Y counted along it
human CD33 Y50R, sequence (P20138 18-364 Y50R limits assumed): as the sequence (P20138 18-364 Y49Q limits assumed) above, with Q32Y, Y33R counted along it

| Binder | Mean % WT Binding (human CD33 F43L) [% WT binding] | Mean % WT Binding (human CD33 F44P) [% WT binding] | Mean % WT Binding (human CD33 F44D) [% WT binding] | Mean % WT Binding (human CD33 F44E) [% WT binding] | Mean % WT Binding (human CD33 F44T) [% WT binding] | Mean % WT Binding (human CD33 H45Y) [% WT binding] | Mean % WT Binding (human CD33 P46S) [% WT binding] | Mean % WT Binding (human CD33 P46R) [% WT binding] | Mean % WT Binding (human CD33 P46Y) [% WT binding] | Mean % WT Binding (human CD33 I47T) [% WT binding] | Mean % WT Binding (human CD33 I47L) [% WT binding] | Mean % WT Binding (human CD33 I47F) [% WT binding] | Mean % WT Binding (human CD33 I47Y) [% WT binding] | Mean % WT Binding (human CD33 I47W) [% WT binding] | Mean % WT Binding (human CD33 I47Q) [% WT binding] | Mean % WT Binding (human CD33 P48T) [% WT binding] | Mean % WT Binding (human CD33 P48H) [% WT binding] | Mean % WT Binding (human CD33 P48V) [% WT binding] | Mean % WT Binding (human CD33 P48I) [% WT binding] | Mean % WT Binding (human CD33 P48L) [% WT binding] | further results |
| --- | --- | --- | --- | --- | --- | --- | --- | --- | --- | --- | --- | --- | --- | --- | --- | --- | --- | --- | --- | --- | --- |
| B1 | 87.9 | 88 | 107 | 102 | 93.9 | 84.4 | 110 | 103 | 79.9 | 97.2 | 99.1 | 105 | 105 | 114 | 107 | 92.6 | 94.4 | 105 | 102 | 104 | Mean % WT Binding (human CD33 P48Q): 111 % WT binding; Mean % WT Binding (human CD33 P48K): 89.4 % WT binding; Mean % WT Binding (human CD33 P48G): 89 % WT binding; Mean % WT Binding (human CD33 P48S): 97.2 % WT binding; Mean % WT Binding (human CD33 Y49P): 117 % WT binding; Mean % WT Binding (human CD33 Y49Q): 115 % WT binding; Mean % WT Binding (human CD33 Y49H): 118 % WT binding; Mean % WT Binding (human CD33 Y49D): 117 % WT binding; Mean % WT Binding (human CD33 Y49V): 121 % WT binding; Mean % WT Binding (human CD33 Y49G): 121 % WT binding; Mean % WT Binding (human CD33 Y49C): 44.7 % WT binding; Mean % WT Binding (human CD33 Y49S): 102 % WT binding; Mean % WT Binding (human CD33 Y49I): 113 % WT binding; Mean % WT Binding (human CD33 Y50N): 108 % WT binding; Mean % WT Binding (human CD33 Y50R): 96.9 % WT binding; Mean % WT Binding (human CD33 Y50G): 115 % WT binding; Mean % WT Binding (human CD33 T42P): 9.3 % WT binding; Mean % WT Binding (human CD33 F43V): 91.8 % WT binding |
| B2 | 96.3 | 114 | 111 | 97 | 92.4 | 94.2 | 98.7 | 103 | 48 | 98.4 | 107 | 90.5 | 94.5 | 90.8 | 94.6 | 91.4 | 7.4 | 53.5 | 4 | 18.9 | Mean % WT Binding (human CD33 P48Q): 2.1 % WT binding; Mean % WT Binding (human CD33 P48K): 58.7 % WT binding; Mean % WT Binding (human CD33 P48G): 3.5 % WT binding; Mean % WT Binding (human CD33 P48S): 43 % WT binding; Mean % WT Binding (human CD33 Y49P): 2.2 % WT binding; Mean % WT Binding (human CD33 Y49Q): 2.3 % WT binding; Mean % WT Binding (human CD33 Y49H): 2.4 % WT binding; Mean % WT Binding (human CD33 Y49D): 1.7 % WT binding; Mean % WT Binding (human CD33 Y49V): 0.9 % WT binding; Mean % WT Binding (human CD33 Y49G): 0.8 % WT binding; Mean % WT Binding (human CD33 Y49C): 0.7 % WT binding; Mean % WT Binding (human CD33 Y49S): 0.5 % WT binding; Mean % WT Binding (human CD33 Y49I): 0.5 % WT binding; Mean % WT Binding (human CD33 Y50N): 3.2 % WT binding; Mean % WT Binding (human CD33 Y50R): 47 % WT binding; Mean % WT Binding (human CD33 Y50G): 5 % WT binding; Mean % WT Binding (human CD33 T42P): 13.9 % WT binding; Mean % WT Binding (human CD33 F43V): 82.2 % WT binding |
